The supplement of paper PMC6379048

Legend:
Experiment in all cases: Kd (EC50 corrected by depletion factor)
MSI2 = MSI2 (UniProt Q96DH6)
In short: (§1)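 Kd was calculated as EC50, taken from a four-parameter log-logistic fit, multiplied by a protein-dependent depletion factor. The assay used HEK293-FT lysate (2.5 mg protein/well) pre-incubated for 1 h at 4°C with free RNA oligos (0 nM to 30 μM), then incubated for 30 min at 4°C with the matching oligos bound through a 5′-amino-C6 linker to NHS-Sepharose beads. Bound proteins were measured by label-free LC-MS/MS and normalised to the control.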

LSM7 = molecular target: T1, LSM7 (UniProt Q9UK45)
T1 sequence: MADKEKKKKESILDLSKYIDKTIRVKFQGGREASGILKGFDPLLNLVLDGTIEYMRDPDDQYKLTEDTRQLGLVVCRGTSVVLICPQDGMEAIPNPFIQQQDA
In short: as §1

ZCCHC24 = ZCCHC24 (UniProt Q8N2G6)
In short: as §1

RBM17 = molecular target: T2, RBM17 (UniProt Q96I25)
T2 sequence: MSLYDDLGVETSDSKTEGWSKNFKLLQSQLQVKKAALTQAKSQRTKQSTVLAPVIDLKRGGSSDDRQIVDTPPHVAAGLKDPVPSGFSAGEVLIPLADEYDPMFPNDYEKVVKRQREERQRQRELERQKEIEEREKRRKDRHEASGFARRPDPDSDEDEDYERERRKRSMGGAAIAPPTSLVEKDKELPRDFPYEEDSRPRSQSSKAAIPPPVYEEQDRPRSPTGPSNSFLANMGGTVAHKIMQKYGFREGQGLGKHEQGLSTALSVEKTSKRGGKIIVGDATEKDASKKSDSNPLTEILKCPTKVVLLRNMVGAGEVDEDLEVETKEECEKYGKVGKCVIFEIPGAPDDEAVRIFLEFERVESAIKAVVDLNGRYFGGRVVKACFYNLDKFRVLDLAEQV
In short: as §1

RPS16 = RPS16 (UniProt P62249)
In short: as §1

PABPC1 = PABPC1 (UniProt P11940)
In short: as §1

DAZAP1 = molecular target: T3, DAZAP1 (UniProt Q96EP5)
T3 sequence: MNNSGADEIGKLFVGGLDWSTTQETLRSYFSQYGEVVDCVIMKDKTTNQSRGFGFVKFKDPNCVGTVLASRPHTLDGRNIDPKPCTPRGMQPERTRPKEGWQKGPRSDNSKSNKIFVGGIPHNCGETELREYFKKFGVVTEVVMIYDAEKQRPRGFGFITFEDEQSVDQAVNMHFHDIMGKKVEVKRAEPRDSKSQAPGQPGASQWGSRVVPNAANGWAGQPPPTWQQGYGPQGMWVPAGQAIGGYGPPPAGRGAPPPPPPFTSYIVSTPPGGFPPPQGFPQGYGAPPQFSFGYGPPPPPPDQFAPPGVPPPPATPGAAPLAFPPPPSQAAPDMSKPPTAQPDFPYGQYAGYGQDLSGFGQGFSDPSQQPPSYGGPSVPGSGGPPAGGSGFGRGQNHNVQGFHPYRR
In short: as §1

MEX3B = molecular target: T4, MEX3B (UniProt Q6ZN04)
T4 sequence: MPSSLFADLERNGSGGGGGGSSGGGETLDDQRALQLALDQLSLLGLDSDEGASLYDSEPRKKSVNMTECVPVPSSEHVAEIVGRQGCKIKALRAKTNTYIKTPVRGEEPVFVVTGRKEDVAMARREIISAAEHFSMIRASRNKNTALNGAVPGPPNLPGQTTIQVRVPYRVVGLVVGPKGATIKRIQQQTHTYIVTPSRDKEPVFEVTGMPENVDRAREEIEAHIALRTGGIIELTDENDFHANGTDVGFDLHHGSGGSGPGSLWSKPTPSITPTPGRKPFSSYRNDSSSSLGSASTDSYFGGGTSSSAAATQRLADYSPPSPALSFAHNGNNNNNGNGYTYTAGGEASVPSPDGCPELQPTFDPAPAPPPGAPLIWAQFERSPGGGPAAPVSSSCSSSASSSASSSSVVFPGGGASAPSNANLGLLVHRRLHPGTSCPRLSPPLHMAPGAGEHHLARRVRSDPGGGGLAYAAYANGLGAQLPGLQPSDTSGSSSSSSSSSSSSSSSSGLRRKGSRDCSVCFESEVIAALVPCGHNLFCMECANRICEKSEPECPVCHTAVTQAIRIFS
In short: as §1

PABPC4 = PABPC4 (UniProt Q13310)
In short: as §1

KHSRP = molecular target: T5, KHSRP (UniProt Q92945)
T5 sequence: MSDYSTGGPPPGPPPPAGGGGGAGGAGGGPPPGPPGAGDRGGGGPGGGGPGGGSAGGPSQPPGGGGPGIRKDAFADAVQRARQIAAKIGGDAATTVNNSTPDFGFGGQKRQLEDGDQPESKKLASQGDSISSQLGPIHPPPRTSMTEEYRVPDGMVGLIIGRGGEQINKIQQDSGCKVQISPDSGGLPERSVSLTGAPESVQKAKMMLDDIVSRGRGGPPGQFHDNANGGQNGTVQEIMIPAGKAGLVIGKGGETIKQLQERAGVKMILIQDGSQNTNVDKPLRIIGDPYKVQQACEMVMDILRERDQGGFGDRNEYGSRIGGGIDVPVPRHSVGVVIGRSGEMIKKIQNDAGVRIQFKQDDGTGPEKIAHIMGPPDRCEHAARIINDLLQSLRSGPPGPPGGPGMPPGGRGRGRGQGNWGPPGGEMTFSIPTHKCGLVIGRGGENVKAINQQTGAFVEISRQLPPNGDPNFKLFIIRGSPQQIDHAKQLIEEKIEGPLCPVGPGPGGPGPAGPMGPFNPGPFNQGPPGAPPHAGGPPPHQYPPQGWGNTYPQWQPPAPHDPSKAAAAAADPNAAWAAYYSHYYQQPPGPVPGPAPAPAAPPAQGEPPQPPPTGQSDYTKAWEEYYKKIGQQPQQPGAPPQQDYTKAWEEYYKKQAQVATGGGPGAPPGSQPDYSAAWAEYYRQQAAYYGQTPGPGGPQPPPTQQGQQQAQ
In short: as §1

ZCCHC24, sequence (Q8N2G6 whole entry): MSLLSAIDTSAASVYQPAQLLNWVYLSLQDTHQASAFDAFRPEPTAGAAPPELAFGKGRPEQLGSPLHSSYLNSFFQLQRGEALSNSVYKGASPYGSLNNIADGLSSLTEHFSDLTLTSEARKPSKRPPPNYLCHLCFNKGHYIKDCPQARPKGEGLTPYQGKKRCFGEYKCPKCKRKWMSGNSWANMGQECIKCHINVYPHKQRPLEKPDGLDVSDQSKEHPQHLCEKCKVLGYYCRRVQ
MSI2, sequence (Q96DH6 whole entry): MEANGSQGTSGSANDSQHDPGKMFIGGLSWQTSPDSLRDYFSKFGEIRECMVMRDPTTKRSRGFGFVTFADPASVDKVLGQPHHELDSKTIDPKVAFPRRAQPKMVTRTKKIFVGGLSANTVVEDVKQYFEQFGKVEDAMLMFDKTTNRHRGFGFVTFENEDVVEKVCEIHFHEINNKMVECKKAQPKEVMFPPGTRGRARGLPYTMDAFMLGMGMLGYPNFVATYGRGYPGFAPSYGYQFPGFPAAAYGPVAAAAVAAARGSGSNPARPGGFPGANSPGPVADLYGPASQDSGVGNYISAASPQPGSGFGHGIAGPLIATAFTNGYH
PABPC1, sequence (P11940 whole entry): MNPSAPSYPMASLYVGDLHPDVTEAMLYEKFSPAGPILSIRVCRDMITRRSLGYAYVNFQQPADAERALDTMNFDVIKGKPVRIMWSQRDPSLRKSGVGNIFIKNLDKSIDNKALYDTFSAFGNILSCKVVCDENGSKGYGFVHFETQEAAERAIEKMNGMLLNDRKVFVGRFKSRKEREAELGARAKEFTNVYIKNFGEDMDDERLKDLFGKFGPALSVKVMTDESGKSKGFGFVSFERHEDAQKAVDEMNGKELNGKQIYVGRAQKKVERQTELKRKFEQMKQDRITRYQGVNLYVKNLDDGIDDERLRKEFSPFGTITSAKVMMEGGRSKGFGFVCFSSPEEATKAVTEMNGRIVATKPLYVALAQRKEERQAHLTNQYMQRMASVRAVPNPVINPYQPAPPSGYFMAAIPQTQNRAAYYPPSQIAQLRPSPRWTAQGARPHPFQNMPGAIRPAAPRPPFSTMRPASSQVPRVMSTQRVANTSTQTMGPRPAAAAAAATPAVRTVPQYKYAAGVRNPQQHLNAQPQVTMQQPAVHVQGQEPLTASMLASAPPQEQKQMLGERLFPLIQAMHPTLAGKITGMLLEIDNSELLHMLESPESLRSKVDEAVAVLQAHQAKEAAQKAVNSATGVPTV
PABPC4, sequence (Q13310 whole entry): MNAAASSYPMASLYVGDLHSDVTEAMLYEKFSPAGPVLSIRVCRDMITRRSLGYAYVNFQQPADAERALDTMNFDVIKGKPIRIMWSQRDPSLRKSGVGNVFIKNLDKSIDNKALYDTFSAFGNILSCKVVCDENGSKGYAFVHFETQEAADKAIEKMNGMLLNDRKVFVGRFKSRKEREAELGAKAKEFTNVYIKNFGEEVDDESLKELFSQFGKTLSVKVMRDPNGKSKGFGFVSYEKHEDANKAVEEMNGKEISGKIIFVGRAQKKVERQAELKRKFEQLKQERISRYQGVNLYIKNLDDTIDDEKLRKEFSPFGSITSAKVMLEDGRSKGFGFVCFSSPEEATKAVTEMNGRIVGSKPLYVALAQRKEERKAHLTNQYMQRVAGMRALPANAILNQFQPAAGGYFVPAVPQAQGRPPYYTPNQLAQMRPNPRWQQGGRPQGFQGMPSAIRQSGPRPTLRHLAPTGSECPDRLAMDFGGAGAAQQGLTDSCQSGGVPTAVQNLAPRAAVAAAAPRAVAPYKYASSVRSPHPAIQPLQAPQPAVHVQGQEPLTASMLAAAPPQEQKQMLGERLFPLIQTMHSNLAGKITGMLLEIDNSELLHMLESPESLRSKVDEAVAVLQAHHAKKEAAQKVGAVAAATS

Row | Sequence | Kd (MSI2) [nM] | Kd (LSM7) [nM] | Kd (ZCCHC24) [nM] | Kd (RBM17) [nM] | Kd (RPS16) [nM] | Kd (PABPC1) [nM] | Kd (DAZAP1) [nM] | Kd (MEX3B) [nM] | Kd (PABPC4) [nM] | Kd (KHSRP) [nM]
1 | AAUAAA | 104 | 142 | 207 | 940 | 349 | 7490 | 113 | 327 | 1530 | 310
2 | CUGUCCU | – | – | – | – | 77 | 95.9 | – | – | – | –
3 | UAUUUAU | 475 | 270 | 1910 | 59.9 | – | – | 286 | 220 | 7840 | 928
